Target: human TfR on TfR-expressing cells (human, UniProt P02786 1-760)
Assay: cell-based or functional assay

Sequence of human TfR on TfR-expressing cells (P02786 whole entry): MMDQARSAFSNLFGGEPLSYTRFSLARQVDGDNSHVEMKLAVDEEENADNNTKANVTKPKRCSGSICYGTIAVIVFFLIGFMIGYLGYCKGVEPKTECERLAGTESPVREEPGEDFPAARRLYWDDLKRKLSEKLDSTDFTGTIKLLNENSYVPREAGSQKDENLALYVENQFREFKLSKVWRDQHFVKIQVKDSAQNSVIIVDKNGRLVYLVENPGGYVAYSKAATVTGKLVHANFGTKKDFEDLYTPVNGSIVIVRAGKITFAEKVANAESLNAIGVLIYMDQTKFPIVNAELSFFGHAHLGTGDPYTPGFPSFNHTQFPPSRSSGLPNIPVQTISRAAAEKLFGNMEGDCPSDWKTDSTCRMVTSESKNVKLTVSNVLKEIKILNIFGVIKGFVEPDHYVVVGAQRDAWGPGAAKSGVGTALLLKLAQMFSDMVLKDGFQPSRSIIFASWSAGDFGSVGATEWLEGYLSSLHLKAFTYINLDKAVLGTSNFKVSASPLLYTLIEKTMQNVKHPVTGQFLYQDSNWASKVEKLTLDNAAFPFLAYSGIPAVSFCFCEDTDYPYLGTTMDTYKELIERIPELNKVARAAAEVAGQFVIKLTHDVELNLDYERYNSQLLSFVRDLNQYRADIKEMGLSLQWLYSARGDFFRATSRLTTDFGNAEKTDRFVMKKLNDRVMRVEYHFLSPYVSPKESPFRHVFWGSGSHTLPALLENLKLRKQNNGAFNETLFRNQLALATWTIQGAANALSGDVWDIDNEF

IC50 (ng/ml) of cell growth, A431: 36 ng/mL
IC50 (ng/ml) of cell growth, A549: 41 ng/mL
IC50 (ng/ml) of cell growth, BFTC905: 44 ng/mL
IC50 (ng/ml) of cell growth, DU145: 33 ng/mL
IC50 (ng/ml) of cell growth, HT29: 25 ng/mL
IC50 (ng/ml) of cell growth, K562: 50 ng/mL
IC50 (ng/ml) of cell growth, KLM1: 30 ng/mL
IC50 (ng/ml) of cell growth, MIAPaCa-2: 55 ng/mL
IC50 (ng/ml) of cell growth, MKN45: 26 ng/mL
IC50 (ng/ml) of cell growth, MT-2: 71 ng/mL
IC50 (ng/ml) of cell growth, NCI-H358: 37 ng/mL
IC50 (ng/ml) of cell growth, NCI-H1373: 127 ng/mL
IC50 (ng/ml) of cell growth, PK45-P: 100 ng/mL
IC50 (ng/ml) of cell growth, RAMOS: 8 ng/mL
B1: TfR006 IgG antibody (antibody, V domains shown)
VH: QVQLVQSGGGVVQPGRSLRLSCAASGFPFKSYGMHWVRQAPGKGLEWVAVISFDGSSKYYADSVKGRFTISRDNSKNTLYLQMNSLRGEDTAVYYCARDSNFWSGYYSPVDVWGQGTTVTVSS
VL: NFMLTQPHSVSESPGKTVTISCTRSSGSIASNSVQWYQQRPGSAPITVIYEDTQRPSGVPDRFSGSIDSSSNSASLTISGLQTEDEADYYCQSYDSAYHWVFGGGTKLAVL

— patent US20140114054A1 (UNIVERSITY OF MIYAZAKI, published 2014)
